We go through 1 molecule from publication PMC6832557, “An Enzyme- and Label-Free Fluorescence Aptasensor for Detection of Thrombin Based on Graphene Oxide and G-Quadruplex”.

The data set has as its target thrombin (bovine (plasma), UniProt P00735;P00735 318-366;367-625). Description: graphene oxide displacement fluorescence assay (NMM/G-quadruplex readout); graphene oxide, NMM; not given in the material (S incubated with GO for 30 min; NMM ex/em 399/610 nm). Conditions: protein: commercial; copies: 1;1; label: none (label-free; NMM as G4 reporter); G-quadruplex (Se part).

Regarding AGTCCGTGGTAGGGCAGGTTGGGGTGACTGGGTAGGGCGGGTTGGG (structured_DNA) [S (thrombin aptamer Sa + G-quadruplex part Se)], the binding result was “binds”.
